Test [1] concerns the target T1, cynomolgus CD45 on live cells (primary cynomolgus PBMCs) (cynomolgus monkey).
T1 construct: Endogenous CD45 on PBMCs; also called cyno CD45; Cyno PBMC
T1 chain: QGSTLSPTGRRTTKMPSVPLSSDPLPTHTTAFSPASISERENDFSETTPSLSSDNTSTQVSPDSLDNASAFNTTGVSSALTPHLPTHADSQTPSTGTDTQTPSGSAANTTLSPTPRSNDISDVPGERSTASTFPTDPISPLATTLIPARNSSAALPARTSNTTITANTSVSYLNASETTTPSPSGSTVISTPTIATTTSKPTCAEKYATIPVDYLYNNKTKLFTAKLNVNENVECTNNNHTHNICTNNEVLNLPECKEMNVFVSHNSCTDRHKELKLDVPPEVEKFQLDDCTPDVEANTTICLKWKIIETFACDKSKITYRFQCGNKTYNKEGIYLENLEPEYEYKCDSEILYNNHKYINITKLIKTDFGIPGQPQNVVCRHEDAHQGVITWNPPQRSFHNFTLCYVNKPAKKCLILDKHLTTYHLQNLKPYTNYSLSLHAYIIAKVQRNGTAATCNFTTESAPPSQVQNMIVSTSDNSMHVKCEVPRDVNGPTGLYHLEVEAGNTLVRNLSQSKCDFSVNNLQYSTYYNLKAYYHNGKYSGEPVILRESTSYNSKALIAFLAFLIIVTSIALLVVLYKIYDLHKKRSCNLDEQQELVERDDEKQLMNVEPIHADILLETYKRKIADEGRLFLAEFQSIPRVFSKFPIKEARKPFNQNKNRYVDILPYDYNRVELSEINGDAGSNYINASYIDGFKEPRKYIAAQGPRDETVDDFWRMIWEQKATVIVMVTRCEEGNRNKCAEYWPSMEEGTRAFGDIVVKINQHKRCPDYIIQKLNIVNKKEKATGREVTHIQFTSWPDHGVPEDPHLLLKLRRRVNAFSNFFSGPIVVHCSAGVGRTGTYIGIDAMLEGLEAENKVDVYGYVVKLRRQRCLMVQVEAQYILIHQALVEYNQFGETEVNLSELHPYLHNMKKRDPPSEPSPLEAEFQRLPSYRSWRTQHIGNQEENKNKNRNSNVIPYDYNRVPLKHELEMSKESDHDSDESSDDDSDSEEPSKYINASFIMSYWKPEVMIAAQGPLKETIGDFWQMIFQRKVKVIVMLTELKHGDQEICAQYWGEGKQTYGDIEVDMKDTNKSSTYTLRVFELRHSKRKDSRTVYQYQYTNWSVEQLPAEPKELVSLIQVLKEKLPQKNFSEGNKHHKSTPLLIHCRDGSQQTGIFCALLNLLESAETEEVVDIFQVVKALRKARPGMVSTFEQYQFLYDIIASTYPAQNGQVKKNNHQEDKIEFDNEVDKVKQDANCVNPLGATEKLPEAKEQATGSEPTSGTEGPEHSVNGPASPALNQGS
The test is described as follows: flow cytometry on cynomolgus PBMCs, overnight 37 C, AF488 anti-human IgG.

Test [2] concerns the target T1, cynomolgus CD45 on live cells (primary …). The test is described as follows: flow cytometry on PBMCs; cyno EC50 against human EC50.
Test [3] has as its target T2, human CD45 on live cells (REH-1 cells, primary human PBMCs) (human, UniProt P08575 26-1306).
T2 construct: Endogenous CD45
T2 sequence: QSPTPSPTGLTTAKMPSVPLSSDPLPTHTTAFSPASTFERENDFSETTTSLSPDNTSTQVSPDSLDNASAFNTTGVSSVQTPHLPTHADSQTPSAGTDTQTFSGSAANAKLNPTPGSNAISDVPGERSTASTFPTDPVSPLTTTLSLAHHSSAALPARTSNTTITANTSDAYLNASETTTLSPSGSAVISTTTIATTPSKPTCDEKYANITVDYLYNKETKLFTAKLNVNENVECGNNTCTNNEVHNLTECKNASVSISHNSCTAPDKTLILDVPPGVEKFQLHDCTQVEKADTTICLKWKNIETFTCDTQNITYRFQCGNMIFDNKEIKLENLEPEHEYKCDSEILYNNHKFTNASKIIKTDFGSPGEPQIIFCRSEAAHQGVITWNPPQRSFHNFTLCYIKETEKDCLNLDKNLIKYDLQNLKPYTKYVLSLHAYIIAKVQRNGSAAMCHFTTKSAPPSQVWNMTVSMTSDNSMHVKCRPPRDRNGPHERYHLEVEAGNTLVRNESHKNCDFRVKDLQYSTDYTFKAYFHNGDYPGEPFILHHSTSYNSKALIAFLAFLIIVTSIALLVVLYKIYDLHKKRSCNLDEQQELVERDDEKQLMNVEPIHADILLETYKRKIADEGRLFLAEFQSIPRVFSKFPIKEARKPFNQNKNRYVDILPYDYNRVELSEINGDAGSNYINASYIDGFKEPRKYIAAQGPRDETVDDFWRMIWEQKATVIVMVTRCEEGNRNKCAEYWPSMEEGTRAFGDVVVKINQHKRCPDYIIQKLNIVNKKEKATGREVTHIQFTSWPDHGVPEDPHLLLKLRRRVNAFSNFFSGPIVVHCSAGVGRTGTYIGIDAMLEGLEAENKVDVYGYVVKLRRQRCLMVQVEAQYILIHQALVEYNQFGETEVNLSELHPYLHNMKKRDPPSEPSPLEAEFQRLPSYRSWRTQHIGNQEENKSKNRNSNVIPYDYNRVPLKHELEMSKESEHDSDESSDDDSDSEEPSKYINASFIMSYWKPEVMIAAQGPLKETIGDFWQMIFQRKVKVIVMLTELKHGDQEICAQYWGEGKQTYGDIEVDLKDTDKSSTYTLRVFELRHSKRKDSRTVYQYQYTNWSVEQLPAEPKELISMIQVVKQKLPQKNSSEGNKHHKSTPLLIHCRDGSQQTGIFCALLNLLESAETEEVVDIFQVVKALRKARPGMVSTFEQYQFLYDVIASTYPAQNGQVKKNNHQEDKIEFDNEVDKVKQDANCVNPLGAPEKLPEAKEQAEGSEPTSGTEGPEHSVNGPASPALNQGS
The test is described as follows: flow cytometry on human PBMCs, overnight 37 C, AF488 anti-human IgG.

The target in test [4] is T1, cynomolgus CD45 on live cells (primary …). The test is described as follows: flow cytometry on cynomolgus PBMCs, overnight 37 C, AF488 anti-human IgG.
Test [5] addresses T2, human CD45 on live cells (REH-1 cells, …). The test is described as follows: flow cytometry on human PBMCs, overnight 37 C, AF488 anti-human IgG. This is another data set of the same source.
Test [6] concerns the target T1, cynomolgus CD45 on live cells (primary …). The test is described as follows: flow cytometry on PBMCs; cyno EC50 against human EC50.
Test [7] concerns the target T3, purified human CD45 ectodomain (human CD45RABC antigen) (human, UniProt P08575 26-577).
T3 construct: also called hCD45
T3 sequence: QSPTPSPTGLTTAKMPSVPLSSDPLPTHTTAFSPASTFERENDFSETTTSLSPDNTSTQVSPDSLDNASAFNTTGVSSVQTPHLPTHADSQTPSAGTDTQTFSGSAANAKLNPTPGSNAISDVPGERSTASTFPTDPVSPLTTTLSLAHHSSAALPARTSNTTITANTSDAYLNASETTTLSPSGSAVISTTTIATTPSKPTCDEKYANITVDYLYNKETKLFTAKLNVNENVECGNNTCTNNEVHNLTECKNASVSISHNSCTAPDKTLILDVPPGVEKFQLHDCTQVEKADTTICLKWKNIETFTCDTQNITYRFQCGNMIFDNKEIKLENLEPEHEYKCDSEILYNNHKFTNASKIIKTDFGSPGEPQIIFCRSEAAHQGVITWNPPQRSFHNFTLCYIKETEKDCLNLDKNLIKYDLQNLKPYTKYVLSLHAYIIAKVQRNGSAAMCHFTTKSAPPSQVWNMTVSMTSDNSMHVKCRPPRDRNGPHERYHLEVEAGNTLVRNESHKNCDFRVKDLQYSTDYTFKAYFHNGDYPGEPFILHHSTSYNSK
The test is described as follows: BLI (Octet Red96), antibody on anti-human Fc sensor, 100 nM human CD45 ectodomain, 1:1 fit.

Test [8] has as its target T3, purified human CD45 ectodomain (human …). The test is described as follows: BLI (Octet Red96), IgG on anti-human Fc sensor, 50 nM CD45 ectodomain, 1:1 fit.

Read-outs that look alike come from different tables or passages of the source.

B1: Antibody A (AbA) (antibody, V domains shown)
VH: EVQLLESGGGLVQPGGSLRLSCAASGFTFNNYWMTWVRQAPGKGLEWVSSISSSGGSIYYPDRVKGRFTISRDNSKNTLYLQMNSLRAEDTAVYYCARDERWAGAMDAWGQGTTVTVSS
VL: DIQMTQSPSSLSASVGDRVTITCKASQNINKNLDWYQQKPGKAPKLLIYETNNLQTGVPSRFSGSGSGTDFTLTISSLQPEDFATYYCYQHNSRFTFGQGTKLEIK
notes: also called humanized clone AbA
As for B1, the EC50 in test [1] stood at 1.25 nM; in test [3] it was 0.78 nM; in test [4], 1.37 nM; in test [5] it was 0.58 nM. For the same molecule, the “Fold Cyno v/s Human (EC50)” value in test [2] was 1.8 fold. In test [6], the “Fold Cyno vs Human (EC50)” value is 2.2 fold. This molecule also had a Kd in test [7] of 3.6 nM. In test [7], this molecule came in with a koff of 0.000181 s⁻¹. The same molecule registered a kon in test [7] of 50300 M⁻¹ s⁻¹.

B2: Antibody 4 (Ab4) (antibody, V domains shown)
VH: EVQLVESGGGLVQPGGSLRLSCAASGFTFEAYSMNWVRQAPGKGLEWVSYISLSGATIHYADSVKGRFTISRDNAKNSLYLQMNSLRAEDTAVYYCARGGQYYYTSSDYGEVAFDIWGQGTMVTVSS
VL: DIVMTQSPLSLPVTPGEPASISCRSSQSLVSNGYNYLDWYLQKPGQSPQLLIYFGSSRASGVPDRFSGSGSGTDFTLKISRVEAEDVGVYYCMQRRRTPWSFGGGTKVEIK
With B2, in test [8], the Kd was found to be 0.0139 nM, the koff is 3.28e-06 s⁻¹ and the kon is 236000 M⁻¹ s⁻¹.

B3: Antibody 3 (Ab3) (antibody, V domains shown)
VH: QVQLVESGGGLVKPGGSLRLSCAASGFTFGGYSMNWVRQAPGKGLEWVSYISISGATITYADSVKGRFTISRDNAKNSLYLQMNSLRAEDTAVYYCARGGQYYYDSSDYGEVAFDIWGQGTMVTVSS
VL: DIVMTQSPLSLPVTPGEPASISCRSSQSLVSNGYNYLDWYLQKPGQSPQLLIYFGSSRASGVPDRFSGSGSGTDFTLKISRVEAEDVGVYYCMQRRRTPPFTFGGGTKVEIK
In test [8], B3 had a Kd of 0.866 nM, a koff of 0.000225 s⁻¹ and a kon of 260000 M⁻¹ s⁻¹.

B4: Antibody 2 (Ab2) (antibody, V domains shown)
VH: EVQLVESGGGLVQPGGSLRLSCAASGFTFEAYSMNWVRQAPGKGLEWVSYISLSGATIHYADSVKGRFTISRDNAKNSLYLQMNSLRAEDTAVYYCARGGQYYYDSSDYGEVAFDIWGQGTMVTVSS
VL: DIVMTQSPLSLPVTPGEPASISCRSSQSLVSNGYNYLDWYLQKPGQSPQLLIYFGSSRASGVPDRFSGSGSGTDFTLKISRVEAEDVGVYYCMQRRRTPWSFGGGTKVEIK
In test [8], B4 returned a Kd of 0.115 nM, a koff of 2.8e-05 s⁻¹ and an on-rate (kon) of 245000 M⁻¹ s⁻¹.

B5: Antibody 5 (Ab5) (antibody, V domains shown)
VH: EVQLVESGGGLVQPGGSLRLSCAASGFTFEAYSMNWVRQAPGKGLEWVSYISLSGATIHYADSVKGRFTISRDNAKNSLYLQMNSLRAEDTAVYYCARGGQYYYTSSDYGEVAFDIWGQGTMVTVSS
VL: DIVMTQSPLSLPVTPGEPASISCRSSQSLVSSGYNYLDWYLQKPGQSPQLLIYFGSSRASGVPDRFSGSGSGTDFTLKISRVEAEDVGVYYCMQRRRTPWSFGGGTKVEIK
notes: Human IgG: Ab4 with the Asn to Ser substitution in CDR-L1
In test [8], B5 showed a Kd of 0.144 nM, a koff of 3.36e-05 s⁻¹ and a kon of 233000 M⁻¹ s⁻¹.

B6: Antibody 7 (Ab7) (antibody, V domains shown)
VH: QVQLVESGGGLVKPGGSLRLSCAASGFTFGGYSMNWVRQAPGKGLEWVSYISISGATITYADSVKGRFTISRDNAKNSLYLQMNSLRAEDTAVYYCARGGQYYYDSSDYGEVAFDIWGQGTMVTVSS
VL: DIVMTQSPLSLPVTPGEPASISCRSSQSLVSSGYNYLDWYLQKPGQSPQLLIYFGSSRASGVPDRFSGSGSGTDFTLKISRVEAEDVGVYYCMQRRRTPPFTFGGGTKVEIK
notes: Human IgG: Ab3 with the Asn to Ser substitution in CDR-L1
In the case of B6, in test [8], the Kd was determined as 2.33 nM, the koff is 0.000615 s⁻¹ and the kon stood at 264000 M⁻¹ s⁻¹.

B7: Antibody 6 (Ab6) (antibody, V domains shown)
VH: EVQLVESGGGLVQPGGSLRLSCAASGFTFEAYSMNWVRQAPGKGLEWVSYISLSGATIHYADSVKGRFTISRDNAKNSLYLQMNSLRAEDTAVYYCARGGQYYYTSSDYGEVAFDIWGQGTLVTVSS
VL: DIVLTQSPLSLPVTPGEPASISCRSSQSLVSSGYNYLDWYLQKPGQSPQLLIYFGSSRASGVPDRFSGSGSGTDFTLKISRVEAEDVGVYYCMQRRRTPWSFGGGTKVEIK
Turning to B7, in test [8], the affinity, expressed as Kd, was 0.0716 nM; the koff worked out at 1.73e-05 s⁻¹; the on-rate constant (kon) came to 242000 M⁻¹ s⁻¹.

Source of the values: patent US20220267441A1 (VOR BIOPHARMA, published 2022).
